The source of these data is patent publication US20240408249A1 (NATIONAL RESEARCH COUNCIL OF CANADA, published 2024).

Assay [1] concerns the target T1, EGFRvIII (epidermal growth factor receptor variant III) over-expressed on the U87-EGFRvIII glioblastoma cell … (human, UniProt P00533 298-623).
T1 construct: The assay used cells over-expressing EGFRvIII (whole receptor on cells); EGFRvIII is its in-frame deletion of exons 2-7; also called de2-7EGFR; ΔEGFR
Description: radioligand saturation binding on U87-EGFRvIII cells, 2 h on ice, gamma counting, one-site non-linear fit. On the procedure:
(§1) 1. Cell lysate buffer was prepared using PBS with 1% Triton X-100 [0448] 2. Cell binding buffer was prepared using PBS with 0.5% BSA
(§2) This study followed the procedures described below: [0450] 1. Cell preparation: [0451] a. Harvest attached cells: recover sufficient, U87-EGFRvIII cells from T225 flasks using trypsin/EDTA and transfer to a 50 ml culture tube. Dispense a 50 μl sample of resuspended cells into an Eppendorf micro-tube and dilute with 50 μl of trypan blue. Fill a hemocytometer (10 μl) chamber and count the number of cells present. [0452] i. Count cells in four quadrants of the counting area. [0453] ii. Calculate cells/mL: count/4 quadrants×dilution factor×10⁴=cells/mL. [0454] b. Resuspend cells in medium to a final concentration of 3×10⁵ cells/ml. [0455] c. Plate 3×10⁵/1 mL U87-EGFRvIII into designated well of the 24-well plates and gently tap to evenly distribute cells (total 6 plates prepared-4 U87-EGFRvIII, 2 blanks) [0456] d. Incubate plates overnight at 37° C. and 5% CO₂. [0457] 2. Binding assay: [0458] Blocking agent was prepared as follows: 4500 μl as concentration of 4 μM; Final concentration of blocker 2 μM. [0459] For Conjugate A [0460] stock=7.58 mg/mL [0461] mg/ml=52.64 μM, add 342 μl [0462] Binding buffer: 4158 μl [0463] For Conjugate B [0464] stock=6.7 mg/mL [0465] mg/ml=46.53 μM, add 387 μl [0466] Binding buffer: 4113 μl [0467] a. Remove medium from two plates [0468] b. […]

Assay [2] concerns the target T1, EGFRvIII (epidermal growth factor …). The experiment in a line: saturation binding of the 177Lu-labelled conjugate on U87-EGFRvIII cells, 2 h on ice, gamma counting; specific binding curve. How it is done:
as §1, §2

B1: Conjugate A ([177Lu]-Compound C-anti-EGFRvIII conjugate prepared from EGFRvIII antibody hH2-hL3) (antibody, V domains shown)
VH: QVQLQESGPGLVKPSQTLSLTCTVSGYSITSDYAWNWIRQPPGKGLEWIGYIGYNGRTSYNPSLKSRVTISRDTSKNQFSLKLSSVTAADTAVYYCARLGRGFAYWGQGTLVTVSS
VL: DIQMTQSPSSLSASVGDRVTITCHASQGINSNIGWLQQKPGKAFKGLIYHGTNLEDGVPSRFSGSGSGTDYTLTISSLQPEDFATYYCVQYAQFPYTFGQGTKLEIKR
modifications: [177Lu]-Compound C (DOTA chelate with PEG3 linker) conjugated to the antibody; attachment residues not stated; typical chelate to antibody ratios (CARs) of 3-4
notes: Radioimmunoconjugate as tested; also called [177Lu]-DOTA-anti-EGFRvIII; humanized variant of anti-EGFRvIII antibody 4E11
The Kd is the equilibrium constant for the complex coming apart. Read a high Kd as a looser complex. With B1, the equilibrium dissociation constant (Kd) in assay [1] was determined as 6.78 nM.

B2: Conjugate B ([177Lu]-Compound C-anti-EGFRvIII conjugate prepared from EGFRvIII antibody hH3-hL1) (antibody, V domains shown)
VH: QVQLQESGPGLVKPSQTLSLTCTVSGYSITSDYAWNWIRQPPGKGLEWMGYIGYNGRTSYNPSLKSRITISRDTSKNQFSLKLSSVTAADTAVYYCARLGRGFAYWGQGTLVTVSS
VL: DIQMTQSPSSLSASVGDRVTITCHASQGINSNIGWYQQKPGKAPKLLIYHGTNLEDGVPSRFSGSGSGTDYTLTISSLQPEDFATYYCVQYAQFPYTFGQGTKLEIKR
modifications: [177Lu]-Compound C (DOTA chelate with PEG3 linker) conjugated to the antibody; attachment residues not stated; typical chelate to antibody ratios (CARs) of 3-4
notes: as for B1
The term EC50 (read off the curve) denotes the midpoint of the concentration-response curve. B2: the concentration giving a half-maximal response (EC50 (read off the curve)) in assay [2] is ~3 nM. Besides, in assay [1], the Kd was 2.75 nM.
